Measured values from patent US20250250357A1 (NANJING ZAIMING PHARMACEUTICAL, published 2025).
Positions count from the first letter of the chain named.

B1: F7.44.20-H3 (scFv, not shown: small tags and cut ends)
scFv: EVQLVQSGAEVKKPGASVKVSCKASGYTFTDYNMDWVRQAPGQGLEWMGDINPSTGGTIYNQKFNGRVTMTEDKSTSTVYMELSSLRSEDTAVYYCARRRIGTGYFDVWGQGTTVTVSSGGGGSGGGGSGGGGSEIVLTQSPATLSLSPGERATLSCSASSSVISSYLSWYQQKPGQSPRLLIYRTSNLASGIPARFSGSGSGTDYTLTISSLEPEDFAVYYCHQWSSFPYTFGGGTKVEIK
notes: also called S009-F7.44.20 humanized antibody VH1 + VL3
B2: F7.44.20-H16 (scFv, not shown: small tags and cut ends)
scFv: B1 scFv with N65S, T76A, Q177S
notes: also called S009-F7.44.20 humanized antibody VH2a + VL4
B3: F7.44.20-H7 (scFv, not shown: small tags and cut ends)
scFv: B1 scFv with N65Q
notes: also called S009-F7.44.20 humanized antibody VH1a + VL3
B4: F7.44.20-H4 (scFv, not shown: small tags and cut ends)
scFv: B1 scFv with Q177S
notes: also called S009-F7.44.20 humanized antibody VH1 + VL4
B5: F7.44.20-H15 (scFv, not shown: small tags and cut ends)
scFv: B1 scFv with N65S, T76A
notes: also called S009-F7.44.20 humanized antibody VH2a + VL3
B6: F7.44.20-H8 (scFv, not shown: small tags and cut ends)
scFv: B1 scFv with N65Q, Q177S
notes: also called S009-F7.44.20 humanized antibody VH1a + VL4
B7: F7.44.20-H12 (scFv, not shown: small tags and cut ends)
scFv: B1 scFv with T76A, Q177S
notes: also called S009-F7.44.20 humanized antibody VH2 + VL4
B8: F7.44.20-H11 (scFv, not shown: small tags and cut ends)
scFv: B1 scFv with T76A
notes: also called S009-F7.44.20 humanized antibody VH2 + VL3
B9: F7.44.20 (scFv, not shown: small tags and cut ends)
scFv: EVQLQQSGPELVKPGASVKIPCKASGYTFTDYNMDWVKQSHGKSLEWIGDINPSTGGTIYNQKFNGKATLTEDKSASTVYMEFRSLTSDDTAVYYCARRRIGTGYFDVWGTGTTVTVSSGGGGSGGGGSGGGGSQIVLTQSPALMSASPGEKVTLTCSASSSVISSYLSWYQQKPGSSPKLLIYRTSNLASGVPARFSGSGSGTSYSLTISSMEAEDAASYFCHQWSSFPYTFGGGTKLEIK
notes: also called S009-F7.44.20 (parental variable regions, in the humanized-antibody ELISA)
B10: F7.44.20-VL-VH (scFv, not shown: small tags and cut ends)
scFv: QIVLTQSPALMSASPGEKVTLTCSASSSVISSYLSWYQQKPGSSPKLLIYRTSNLASGVPARFSGSGSGTSYSLTISSMEAEDAASYFCHQWSSFPYTFGGGTKLEIKGGGGSGGGGSGGGGSEVQLQQSGPELVKPGASVKIPCKASGYTFTDYNMDWVKQSHGKSLEWIGDINPSTGGTIYNQKFNGKATLTEDKSASTVYMEFRSLTSDDTAVYYCARRRIGTGYFDVWGTGTTVTVSS
notes: also called S009-F7.44.20 parental variable regions, VL-VH order
B11: F7.44.20-H9 (scFv, not shown: small tags and cut ends)
scFv: EVQLVQSGAEVKKPGASVKVSCKASGYTFTDYNMDWVRQAPGQGLEWMGDINPSTGGTIYNQKFNGRVTMTEDKSASTVYMELSSLRSEDTAVYYCARRRIGTGYFDVWGQGTTVTVSSGGGGSGGGGSGGGGSEIVLTQSPDFQSVTPKEKVTITCSASSSVISSYLSWYQQKPDQSPKLLIYRTSNLASGVPSRFSGSGSGTDFTLTINSLEAEDAATYYCHQWSSFPYTFGGGTKVEIK
notes: also called S009-F7.44.20 humanized antibody VH2 + VL1
B12: F7.44.20-H14 (scFv, not shown: small tags and cut ends)
scFv: B11 scFv with N65S, F206Y
notes: also called S009-F7.44.20 humanized antibody VH2a + VL2
B13: F7.44.20-H10 (scFv, not shown: small tags and cut ends)
scFv: B11 scFv with F206Y
notes: also called S009-F7.44.20 humanized antibody VH2 + VL2
B14: F7.44.20-H13 (scFv, not shown: small tags and cut ends)
scFv: B11 scFv with N65S
notes: also called S009-F7.44.20 humanized antibody VH2a + VL1

Target: T1, human MSLN-hFc protein (Acro, Cat. No. MSN-H5253) (human, UniProt Q13421 296-580)
T1 construct: the method names the coated protein as human MSLN-hFc (Acro); also called human MSLN full-length protein
T1 sequence (Q13421 other isoform, or with tags, fused parts or gaps limits assumed): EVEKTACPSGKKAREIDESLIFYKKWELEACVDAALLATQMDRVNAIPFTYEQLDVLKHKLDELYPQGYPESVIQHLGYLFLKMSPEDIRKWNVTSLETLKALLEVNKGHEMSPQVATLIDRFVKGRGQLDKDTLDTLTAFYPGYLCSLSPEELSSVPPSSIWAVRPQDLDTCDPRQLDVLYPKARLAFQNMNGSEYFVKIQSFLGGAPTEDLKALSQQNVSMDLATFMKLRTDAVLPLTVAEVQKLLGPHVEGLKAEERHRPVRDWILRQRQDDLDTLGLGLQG
Experiment: ELISA on coated antigen, antibody 1 nM

Row | OD450 [OD450] | Binder
1 | 1.22 | B1
2 | 1.12 | B2
3 | 1.74 | B3
4 | 1.14 | B4
5 | 1.24 | B5
6 | 1.13 | B6
7 | 1.02 | B7
8 | 1.69 | B8
9 | 0.83 | B9
10 | 1.06 | B10
11 | 1.3 | B11
12 | 1.2 | B12
13 | 1.44 | B13
14 | 0.98 | B14

Target: T2, human MSLN-R3 protein (human, UniProt Q13421 487-598)
T2 construct: also called hMSLN-R3
T2 sequence (Q13421 495-606, form in doubt): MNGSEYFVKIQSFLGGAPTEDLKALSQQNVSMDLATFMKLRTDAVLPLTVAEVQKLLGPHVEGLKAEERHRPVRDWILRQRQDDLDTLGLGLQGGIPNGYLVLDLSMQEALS
Experiment: ELISA on coated antigen, antibody 0.001 nM

Row | OD450 [OD450] | Binder
15 | 0.04 | B1
16 | 0.04 | B2
17 | 0.04 | B3
18 | 0.04 | B4
19 | 0.04 | B5
20 | 0.04 | B6
21 | 0.05 | B7
22 | 0.04 | B8
23 | 0.04 | B9
24 | 0.04 | B10
25 | 0.04 | B11
26 | 0.04 | B12
27 | 0.04 | B13
28 | 0.05 | B14

Target: T1, human MSLN-hFc protein (Acro, Cat. No. …)
Experiment: ELISA on coated antigen, antibody 0.1 nM

Row | OD450 [OD450] | Binder
29 | 0.15 | B1
30 | 0.16 | B2
31 | 0.3 | B3
32 | 0.19 | B4
33 | 0.19 | B5
34 | 0.15 | B6
35 | 0.16 | B7
36 | 0.27 | B8
37 | 0.22 | B9
38 | 0.11 | B10
39 | 0.19 | B11
40 | 0.19 | B12
41 | 0.24 | B13
42 | 0.16 | B14

Target: T2, human MSLN-R3 protein
Experiment: ELISA on coated antigen, antibody 100 nM

Row | OD450 [OD450] | Binder
43 | 2.21 | B1
44 | 1.8 | B2
45 | 2.1 | B3
46 | 2.32 | B4
47 | 1.86 | B5
48 | 2.15 | B6
49 | 2.44 | B7
50 | 2.43 | B8
51 | 1.96 | B9
52 | 1.8 | B10
53 | 2.52 | B11
54 | 1.9 | B12
55 | 2.44 | B13
56 | 1.94 | B14

Target: T1, human MSLN-hFc protein (Acro, Cat. No. …)
Experiment: ELISA on coated antigen, antibody 0.0001 nM

Row | OD450 [OD450] | Binder
57 | 0.04 | B1
58 | 0.05 | B2
59 | 0.04 | B3
60 | 0.05 | B4
61 | 0.05 | B5
62 | 0.05 | B6
63 | 0.05 | B7
64 | 0.05 | B8
65 | 0.04 | B9
66 | 0.04 | B10
67 | 0.05 | B11
68 | 0.05 | B12
69 | 0.05 | B13
70 | 0.06 | B14

Target: T2, human MSLN-R3 protein
Experiment: ELISA on coated antigen, antibody 10 nM

Row | OD450 [OD450] | Binder
71 | 2.12 | B1
72 | 1.6 | B2
73 | 2.23 | B3
74 | 2.11 | B4
75 | 1.85 | B5
76 | 2.07 | B6
77 | 2.12 | B7
78 | 2.41 | B8
79 | 1.68 | B9
80 | 1.68 | B10
81 | 2.1 | B11
82 | 1.69 | B12
83 | 2.25 | B13
84 | 1.57 | B14

Target: T2, human MSLN-R3 protein
Experiment: ELISA on coated antigen, antibody 1 nM

Row | OD450 [OD450] | Binder
85 | 0.83 | B1
86 | 0.72 | B2
87 | 1.18 | B3
88 | 0.74 | B4
89 | 0.77 | B5
90 | 0.76 | B6
91 | 0.6 | B7
92 | 1.1 | B8
93 | 0.39 | B9
94 | 0.55 | B10
95 | 0.72 | B11
96 | 0.66 | B12
97 | 0.81 | B13
98 | 0.45 | B14

Target: T2, human MSLN-R3 protein
Experiment: ELISA on coated antigen, antibody 0.1 nM

Row | OD450 [OD450] | Binder
99 | 0.1 | B1
100 | 0.1 | B2
101 | 0.16 | B3
102 | 0.1 | B4
103 | 0.11 | B5
104 | 0.09 | B6
105 | 0.09 | B7
106 | 0.16 | B8
107 | 0.07 | B9
108 | 0.08 | B10
109 | 0.11 | B11
110 | 0.1 | B12
111 | 0.11 | B13
112 | 0.08 | B14

Target: T2, human MSLN-R3 protein
Experiment: ELISA on coated antigen, antibody 0.0001 nM

Row | OD450 [OD450] | Binder
113 | 0.05 | B1
114 | 0.04 | B2
115 | 0.05 | B3
116 | 0.05 | B4
117 | 0.05 | B5
118 | 0.05 | B6
119 | 0.05 | B7
120 | 0.05 | B8
121 | 0.04 | B9
122 | 0.05 | B10
123 | 0.04 | B11
124 | 0.04 | B12
125 | 0.04 | B13
126 | 0.05 | B14

Target: T1, human MSLN-hFc protein (Acro, Cat. No. …)
Experiment: ELISA on coated antigen, antibody 0.01 nM

Row | OD450 [OD450] | Binder
127 | 0.06 | B1
128 | 0.05 | B2
129 | 0.06 | B3
130 | 0.06 | B4
131 | 0.06 | B5
132 | 0.05 | B6
133 | 0.06 | B7
134 | 0.06 | B8
135 | 0.05 | B9
136 | 0.05 | B10
137 | 0.06 | B11
138 | 0.07 | B12
139 | 0.06 | B13
140 | 0.06 | B14

Target: T1, human MSLN-hFc protein (Acro, Cat. No. …)
Experiment: ELISA on coated antigen, antibody 10 nM

Row | OD450 [OD450] | Binder
141 | 2.74 | B1
142 | 2.4 | B2
143 | 2.99 | B3
144 | 2.99 | B4
145 | 2.78 | B5
146 | 2.55 | B6
147 | 2.92 | B7
148 | 2.91 | B8
149 | 2.48 | B9
150 | 2.14 | B10
151 | 2.97 | B11
152 | 2.89 | B12
153 | 2.93 | B13
154 | 2.81 | B14

Target: T2, human MSLN-R3 protein
Experiment: ELISA on coated antigen, antibody 0.01 nM

Row | OD450 [OD450] | Binder
155 | 0.04 | B1
156 | 0.06 | B2
157 | 0.05 | B3
158 | 0.04 | B4
159 | 0.04 | B5
160 | 0.04 | B6
161 | 0.05 | B7
162 | 0.05 | B8
163 | 0.04 | B9
164 | 0.05 | B10
165 | 0.04 | B11
166 | 0.04 | B12
167 | 0.04 | B13
168 | 0.05 | B14

Target: T1, human MSLN-hFc protein (Acro, Cat. No. …)
Experiment: ELISA on coated antigen, antibody 100 nM

Row | OD450 [OD450] | Binder
169 | 2.96 | B1
170 | 2.97 | B2
171 | 3.05 | B3
172 | 3.2 | B4
173 | 3.26 | B5
174 | 3.09 | B6
175 | 3.17 | B7
176 | 3.28 | B8
177 | 2.97 | B9
178 | 2.98 | B10
179 | 3.25 | B11
180 | 3.13 | B12
181 | 3.25 | B13
182 | 3.12 | B14

Target: T1, human MSLN-hFc protein (Acro, Cat. No. …)
Experiment: ELISA on coated antigen, antibody 0.001 nM

Row | OD450 [OD450] | Binder
183 | 0.04 | B1
184 | 0.05 | B2
185 | 0.04 | B3
186 | 0.04 | B4
187 | 0.05 | B5
188 | 0.04 | B6
189 | 0.05 | B7
190 | 0.05 | B8
191 | 0.17 | B9
192 | 0.2 | B10
193 | 0.05 | B11
194 | 0.05 | B12
195 | 0.04 | B13
196 | 0.06 | B14
